Measurements taken from patent publication US20080207488A1, “Method for Detecting Peptides Comprising a Cross-B Structure” (priority 2005, published 2008).

Columns and labels:
tPA = molecular target: T1, tPA (Homo sapiens, UniProt P00750); assay: tPA binding assay with immobilized biopharmaceuticals in an ELISA; conditions: therapeutic coated 1:10; one-site binding fit
T1 construct: purchased Boehringer-Ingelheim (Actilyse, Alteplase)
Method: Nunc Immobilizer plates (Nalge Nunc, #436013, Rochester, N.Y., USA) were coated with 50 μL containing 5 μg/mL of sample protein (unless indicated otherwise) in 100 mM NaHCO3, pH 9.6, 0.05% m/v NaN3 for 1 hour at room temperature. Plates were washed twice with Tris buffered saline pH 7.2 containing 0.1% Tween20 (TBST) and blocked with PBS containing 1% Tween20 for 1 hour at room temperature. […] Plates were washed five times with TBST and incubated with peroxidase labeled anti-mouse immunoglobulins (RAMPO; DAKOCytomation, Glostrup, Denmark) diluted 1:3000 in PBST for 30 minutes at room temperature. Plates were washed five times with PBS 0.1% Tween20, and stained with 100 μL/well of tetramethyl-benzidine (TMB) substrate (Biosource Europe, Nivelles, Belgium). The reaction was terminated with 50 μL/well of 2 M H2SO4 and substrate conversion was read at 450 nm on a Spectramax340 microplate reader. Curves were fitted with a one-site binding model (GraphPad Prism version 4.02 for Windows, Graphpad Software, CA, USA) from which Kd and Bmax were determined.
Protein therapeutics were obtained from the local hospital pharmacy and analyzed within the expiry limits as stated by the manufacturers.

sRAGE = molecular target: T2, sRAGE (Homo sapiens, UniProt Q15109); assay: Biacore surface plasmon resonance, binding to immobilized sRAGE; conditions: Hb-AGE 32, amyloid γ-globulins 62.5, albumin-AGE 3.9 μg ml^−1
T2 construct: comprises three domains spanning amino-acid residues 23-325; His-tag with thrombin cleavage site (N); made in house; host or cells: 293E cells (printed as '293E hamster embryonic kidney cells')
T2 sequence (Q15109 23-325): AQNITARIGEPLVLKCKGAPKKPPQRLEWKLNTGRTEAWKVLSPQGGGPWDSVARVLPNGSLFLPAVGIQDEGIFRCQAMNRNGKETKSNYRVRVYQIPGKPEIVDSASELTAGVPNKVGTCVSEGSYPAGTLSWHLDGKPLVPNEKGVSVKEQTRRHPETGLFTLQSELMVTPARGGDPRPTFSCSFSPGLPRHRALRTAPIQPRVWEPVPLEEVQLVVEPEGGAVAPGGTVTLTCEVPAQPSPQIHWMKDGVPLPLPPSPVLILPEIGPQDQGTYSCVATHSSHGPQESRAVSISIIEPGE
Source text: The soluble extracellular part, of the receptor for AGE (sRAGE) was cloned, expressed and purified as follows (Q.-H. Zeng, Prof. P. Gros, Dept. of Crystal- & Structural Chemistry, Bijvoet Center for Biomolecular Research, Utrecht University, Utrecht, the Netherlands). Human cDNA of RAGE was purchased from RZPD (clone IRALp962E1737Q2, RZPD, Berlin, Germany). For PCRs, the gagatct[…] forward primer was used comprising a BglII site, and the gcggccgc[…] reverse primer with a NotI site. The soluble extracellular part of RAGE comprises three domains spanning amino-acid residues 23-325. The PCR product was cloned into a pTT3 vector, containing an amino-terminal His-tag and a thrombin cleavage site. The sRAGE was expressed in 293E hamster embryonic kidney cells at the ABC-protein expression facility (Utrecht University, Utrecht, the Netherlands). […]
Binding of cross-β structure conformation containing peptides/proteins was studied using surface plasmon resonance technology with a Biacore 2000 apparatus (Biacore AB, Uppsala, Sweden). […] Binding of albumin-AGE was determined with a solution of 3.9 μg ml^−1 albumin-AGE in running buffer. albumin-AGE was filtered on a Millex-GV 0.22 μm filter unit (Millipore). […] Binding of Hb-AGE was also tested after centrifugation for 10 min. at 16,000*g alternative to filtration. tPA activation before and after filtration was assessed with a Plg-activation assay. […]

human BiP = molecular target: T3, human BiP (Homo sapiens, UniProt P11021); assay: ELISA, binding of BiP to coated (mis)folded proteins; conditions: coated protein
T3 construct: made in house; host or cells: HEK293E cells, transient transfection, protein purified from the medium
T3 sequence (P11021 19-654): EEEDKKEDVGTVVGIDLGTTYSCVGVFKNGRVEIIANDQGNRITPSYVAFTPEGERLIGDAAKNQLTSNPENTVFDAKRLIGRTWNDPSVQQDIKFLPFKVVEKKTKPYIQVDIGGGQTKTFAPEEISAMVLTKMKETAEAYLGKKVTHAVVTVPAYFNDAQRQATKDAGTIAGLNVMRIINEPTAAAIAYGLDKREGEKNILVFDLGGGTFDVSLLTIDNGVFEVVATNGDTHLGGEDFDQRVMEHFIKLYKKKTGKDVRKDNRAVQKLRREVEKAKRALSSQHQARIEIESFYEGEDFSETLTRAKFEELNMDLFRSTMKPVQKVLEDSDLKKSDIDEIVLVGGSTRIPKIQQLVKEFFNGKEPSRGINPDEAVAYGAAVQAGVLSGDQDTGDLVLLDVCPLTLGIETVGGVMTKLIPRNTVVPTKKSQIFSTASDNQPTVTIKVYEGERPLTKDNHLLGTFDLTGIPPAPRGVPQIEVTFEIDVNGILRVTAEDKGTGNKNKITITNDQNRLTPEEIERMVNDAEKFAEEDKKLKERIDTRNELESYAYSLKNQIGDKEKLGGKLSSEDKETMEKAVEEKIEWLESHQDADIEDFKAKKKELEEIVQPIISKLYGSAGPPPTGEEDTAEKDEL
Method: The plates were blocked using Blocking reagent (Roche 1112589). A dilution series of the protein of interest was applied to the coated proteins and wells were subsequently washed using TBS-T (50 mM Tris pH 7.3, 150 mM NaCl and 0.1% Tween20). Bound protein is detected by the FLAG-tag using 1:3000 anti-FLAG-HRP (Sigma A-8592) in PBS-T, or by 1:1000 Ni-NTA-HRP (Qiagen 34530) in PBS-T. The HRP reaction Is performed using the TMB substrate (Biosource 4501103 or Tebu Bio 101TMB100-500), stopped using 10% H2SO4 and absorbance was measured at 450 nm.

T1 sequence (P00750 36-562): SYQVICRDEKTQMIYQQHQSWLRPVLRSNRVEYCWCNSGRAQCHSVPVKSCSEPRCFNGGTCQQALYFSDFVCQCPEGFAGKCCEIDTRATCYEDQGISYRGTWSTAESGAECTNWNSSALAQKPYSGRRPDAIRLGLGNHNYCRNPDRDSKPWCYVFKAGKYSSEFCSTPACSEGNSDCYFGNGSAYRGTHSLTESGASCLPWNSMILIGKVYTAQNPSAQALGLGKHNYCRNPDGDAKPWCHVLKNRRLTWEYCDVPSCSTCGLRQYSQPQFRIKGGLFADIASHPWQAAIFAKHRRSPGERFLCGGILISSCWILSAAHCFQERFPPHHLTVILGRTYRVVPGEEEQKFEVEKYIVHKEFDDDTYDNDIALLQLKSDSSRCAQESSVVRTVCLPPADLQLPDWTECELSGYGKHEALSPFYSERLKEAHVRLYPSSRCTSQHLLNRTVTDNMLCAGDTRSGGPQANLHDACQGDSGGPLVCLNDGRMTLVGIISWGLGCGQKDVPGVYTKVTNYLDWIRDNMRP

| Substance | tPA Binding Bmax (OD450 nm) (tPA) | binding to immobilized sRAGE (sRAGE) | binding of BiP (detection anti-FLAG-HRP) (human BiP) | binding of BiP (detection Ni-NTA-HRP) (human BiP; FIG. 7A) |
| --- | --- | --- | --- | --- |
| Abciximab: abciximab, an inhibitor of blood platelet aggregation (ReoPro, Centocor) | 0.5329 OD450 nm |  |  |  |
| albumin-AGE: advanced glycation end-product modified bovine serum albumin |  | bind | high affinity | low affinity |
